# Legend:
# [1] = target: untagged SARS-CoV-2 RBD expressed in E. coli BL21(DE3) and oxidatively refolded (RBDWT) (SARS-CoV-2) (UniProt P0DTC2); assay: BLI, RBD expressed in E. coli
# [2] = target: untagged SARS-CoV-2 RBD expressed in E. coli BL21(DE3) and oxidatively refolded (RBDWT) (SARS-CoV-2) (UniProt P0DTC2); assay: BLI, RBD expressed in E. coli, 1:1 Langmuir fit
# [3] = target: Mammalian SARS-CoV2 RBD (residues 331-524) with C-terminal 6XHis Tag (SARS-CoV-2) (UniProt P0DTC2); assay: ELISA on coated antigen, anti-human IgG-HRP
substance,measurement,setting,value
mAb 2B04 (antibody),half-life,[1],23.7 min
same,Kd,[2],1.05 nM
same,minimum positive concentration,[3],< 5 µg/mL
